Assay results reported in PMC4189953.

Experiments:
[1] = target: CFP-tagged ICln (C-ICln) (human) (UniProt P54105); test: FRET or BRET; acceptor photobleaching FRET (FRETeff), living HEK cells, 37°C, after 10 min exposure to the hypotonic extracellular solution; CFP donor, YFP acceptor
[2] = target: CFP-tagged ICln (C-ICln) (human) (UniProt P54105); test: FRET or BRET; acceptor photobleaching FRET (FRETeff), living HEK cells 24 h after transfection, 37°C, slightly hypertonic extracellular solution (317 mOsm, pH 7.4); CFP donor, YFP acceptor; whole cell bleached

Sequence of UniProt P54105 (P54105 whole entry): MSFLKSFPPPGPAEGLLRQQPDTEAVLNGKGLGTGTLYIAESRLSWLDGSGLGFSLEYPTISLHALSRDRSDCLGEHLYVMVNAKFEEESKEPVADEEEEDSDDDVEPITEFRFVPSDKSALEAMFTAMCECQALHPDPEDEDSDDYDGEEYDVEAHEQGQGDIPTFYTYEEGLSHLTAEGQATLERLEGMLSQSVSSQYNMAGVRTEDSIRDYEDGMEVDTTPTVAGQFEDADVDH

YFP-tagged 4.1R^80 (Y-4.1R^80) (natural protein)
FRETeff [1]: 15.1
FRETeff [2]: 11.6
